Measurements published in publication PMC11438962.

Biological target: biotin-labeled HNRNPA1 peptide carrying R194 symmetric dimethylation (SDMA)
Experiment: BLI; Octet-RED96; biotinylated R194 SDMA HNRNPA1 peptide immobilised on streptavidin biosensors at 10 µg/mL; ZMYND11-MYND serially diluted three-fold from 333 nM in PBST; 300 s association, 300 s dissociation; 1:1 binding model

- Kd: 3.5 nM
Substance: His-tagged recombinant MYND domain of ZMYND11 (domain or fragment)
